In patent EP3170507A1 (Consejo Superior de Investigaciones Cientificas (CSIC), dated 2017):

T1: rabbit-lung angiotensin converting enzyme (ACE) (Sigma) (rabbit, UniProt P12822 34-1310, limits assumed)
T1 sequence (looked up): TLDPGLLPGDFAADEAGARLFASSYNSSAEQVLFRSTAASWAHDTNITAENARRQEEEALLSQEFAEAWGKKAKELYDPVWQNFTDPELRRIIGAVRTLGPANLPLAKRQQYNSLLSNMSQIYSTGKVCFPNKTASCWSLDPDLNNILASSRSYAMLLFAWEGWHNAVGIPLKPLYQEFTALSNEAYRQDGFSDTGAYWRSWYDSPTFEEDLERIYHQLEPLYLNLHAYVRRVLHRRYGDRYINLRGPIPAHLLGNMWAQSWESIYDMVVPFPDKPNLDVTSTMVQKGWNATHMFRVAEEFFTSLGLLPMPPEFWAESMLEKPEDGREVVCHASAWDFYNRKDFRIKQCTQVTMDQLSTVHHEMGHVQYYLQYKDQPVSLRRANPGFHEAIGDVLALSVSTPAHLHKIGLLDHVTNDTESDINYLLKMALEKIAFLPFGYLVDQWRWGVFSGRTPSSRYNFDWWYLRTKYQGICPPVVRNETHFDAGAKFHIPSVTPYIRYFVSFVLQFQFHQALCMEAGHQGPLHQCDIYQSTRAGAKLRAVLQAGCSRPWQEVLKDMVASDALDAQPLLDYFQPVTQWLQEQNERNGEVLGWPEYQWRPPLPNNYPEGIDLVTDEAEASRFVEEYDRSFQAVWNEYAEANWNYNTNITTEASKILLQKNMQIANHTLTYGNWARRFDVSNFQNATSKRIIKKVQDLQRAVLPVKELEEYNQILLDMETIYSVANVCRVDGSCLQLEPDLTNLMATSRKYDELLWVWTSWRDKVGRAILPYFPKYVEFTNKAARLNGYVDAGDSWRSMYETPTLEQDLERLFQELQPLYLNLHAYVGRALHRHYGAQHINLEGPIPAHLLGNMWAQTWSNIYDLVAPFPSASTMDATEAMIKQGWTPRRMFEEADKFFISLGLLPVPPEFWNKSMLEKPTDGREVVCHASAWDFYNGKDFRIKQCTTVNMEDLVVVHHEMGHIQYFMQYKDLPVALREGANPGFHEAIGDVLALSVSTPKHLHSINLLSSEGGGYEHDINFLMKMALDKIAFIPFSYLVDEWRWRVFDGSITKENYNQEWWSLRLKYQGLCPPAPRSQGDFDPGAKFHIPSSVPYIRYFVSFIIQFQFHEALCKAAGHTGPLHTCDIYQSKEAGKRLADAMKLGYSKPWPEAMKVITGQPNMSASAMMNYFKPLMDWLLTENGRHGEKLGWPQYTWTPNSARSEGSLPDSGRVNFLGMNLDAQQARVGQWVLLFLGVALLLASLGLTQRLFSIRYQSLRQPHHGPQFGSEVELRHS


biological target: T1, rabbit-lung angiotensin converting …; experiment: cell-based or functional assay

WAAGYCC [SEQ ID NO: 6 peptide WAAGYCC] was tested. Which “ACE inhibitory activity, IC50” value did it give?
The value was 6880 nM.

CCGNAVPQ [SEQ ID NO: 7 peptide CCGNAVPQ] was tested. Which “ACE inhibitory activity, IC50” value did it give?
The value was 39600 nM.

With RDGGYCC [SEQ ID NO: 1 peptide RDGGYCC] as the binder, how does the “ACE inhibitory activity, IC50” value read?
Its value is 840 nM.

How did the “ACE inhibitory activity, IC50” value turn out when YYCPADCPS [SEQ ID NO: 2 peptide YYCPADCPS] was run?
The value was 1640 nM.

YGCGCDPL [SEQ ID NO: 3 peptide YGCGCDPL] was tested. Which “ACE inhibitory activity, IC50” value did it give?
The value was 1850 nM.

Which “ACE inhibitory activity, IC50” value does the source give for LEEFCC [SEQ ID NO: 4 peptide LEEFCC] here?
The value was 2580 nM.

With HCGCNTH [SEQ ID NO: 5 peptide HCGCNTH] as the binder, how does the “ACE inhibitory activity, IC50” value read?
The value was 2590 nM.
